Tests used:
[1] = molecular target: T1, relaxin receptors on THP-1 cells (Homo sapiens, UniProt Q9HBX9); assay: THP-1 cAMP bioassay; settings: THP-1 and PC3-Luc cell cultures
T1 sequence (Q9HBX9 1-757): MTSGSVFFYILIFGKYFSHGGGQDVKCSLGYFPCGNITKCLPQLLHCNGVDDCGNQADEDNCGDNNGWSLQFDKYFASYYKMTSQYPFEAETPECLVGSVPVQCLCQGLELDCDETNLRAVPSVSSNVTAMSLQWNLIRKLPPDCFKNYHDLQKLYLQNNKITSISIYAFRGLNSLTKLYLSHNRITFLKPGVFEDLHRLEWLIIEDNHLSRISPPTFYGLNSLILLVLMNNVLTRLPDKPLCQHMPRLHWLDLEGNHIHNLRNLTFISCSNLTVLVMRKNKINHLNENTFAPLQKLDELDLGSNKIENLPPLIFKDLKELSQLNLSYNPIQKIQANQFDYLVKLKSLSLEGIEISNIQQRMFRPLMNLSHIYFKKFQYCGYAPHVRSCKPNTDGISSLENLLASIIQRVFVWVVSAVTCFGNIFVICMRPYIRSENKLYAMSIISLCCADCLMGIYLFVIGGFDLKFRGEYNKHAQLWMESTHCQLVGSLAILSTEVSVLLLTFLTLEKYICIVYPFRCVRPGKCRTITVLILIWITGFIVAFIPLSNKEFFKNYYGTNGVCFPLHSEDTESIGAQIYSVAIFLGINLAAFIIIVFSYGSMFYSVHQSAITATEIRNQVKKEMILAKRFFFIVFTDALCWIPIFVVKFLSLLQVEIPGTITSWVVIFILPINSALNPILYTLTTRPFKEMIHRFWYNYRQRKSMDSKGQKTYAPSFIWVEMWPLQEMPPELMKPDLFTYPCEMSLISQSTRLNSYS
Description: To confirm the biological activity of the H2 and ΔH2 relaxins, the cAMP Biotrak E1A System was employed (Amersham Biosciences) as described before (Parsell, D. A., Mak, J. Y., Amento, E P., Unemori, E. N. 1996. Relaxin binds to and elicits a response from cells of the human monocytic cell line, THP-1. J Biol Chem. 271:27936-41; Silvertown, J. D., Geddes, B. J., Summerlee, A. J. 2003. Adenovirus mediated expression of human prorelaxin promotes the invasive potential of canine mammary cancer cells. Endocrinology. 144:3683-91). For measuring bioactivity from CM, 40 μL from each concentrated CM sample was added to THP-1 cells. For measuring cAMP levels directly from the LV-infected PC3-Luc cells, 1×10^5 cells were seeded in a 96-well plate and equilibrated for 2 h before cAMP was measured as described (Parsell, D. A., Mak, J. Y., Amento, E P., Unemori, E. N. 1996. Relaxin binds to and elicits a response from cells of the human monocytic cell line, THP-1. J Biol Chem. 271:27936-41; Silvertown, J. D., Geddes, B. J., Summerlee, A. J. 2003. Adenovirus-mediated expression of human prorelaxin promotes the invasive potential of canine mammary cancer cells. Endocrinology. 144:3683-91). The THP-1 cAMP assay was also adapted for an H2 relaxin competitive assay. […]

LGR7 = molecular target: T2, LGR7 (Homo sapiens, UniProt Q9HBX9); assay: Flow cytometry-based relaxin binding assay on 293T-LGR7 cells, competed with bH2; settings: unconcentrated CM, WT H2 1 and 4 ng/mL, ΔH2 1 ng/mL, competed with 5 ng bH2
T2 construct: expressed in transfected cells; host or cells: 293T-LGR7 (293T human embryonic kidney cells)
T2 sequence (Q9HBX9 1-757): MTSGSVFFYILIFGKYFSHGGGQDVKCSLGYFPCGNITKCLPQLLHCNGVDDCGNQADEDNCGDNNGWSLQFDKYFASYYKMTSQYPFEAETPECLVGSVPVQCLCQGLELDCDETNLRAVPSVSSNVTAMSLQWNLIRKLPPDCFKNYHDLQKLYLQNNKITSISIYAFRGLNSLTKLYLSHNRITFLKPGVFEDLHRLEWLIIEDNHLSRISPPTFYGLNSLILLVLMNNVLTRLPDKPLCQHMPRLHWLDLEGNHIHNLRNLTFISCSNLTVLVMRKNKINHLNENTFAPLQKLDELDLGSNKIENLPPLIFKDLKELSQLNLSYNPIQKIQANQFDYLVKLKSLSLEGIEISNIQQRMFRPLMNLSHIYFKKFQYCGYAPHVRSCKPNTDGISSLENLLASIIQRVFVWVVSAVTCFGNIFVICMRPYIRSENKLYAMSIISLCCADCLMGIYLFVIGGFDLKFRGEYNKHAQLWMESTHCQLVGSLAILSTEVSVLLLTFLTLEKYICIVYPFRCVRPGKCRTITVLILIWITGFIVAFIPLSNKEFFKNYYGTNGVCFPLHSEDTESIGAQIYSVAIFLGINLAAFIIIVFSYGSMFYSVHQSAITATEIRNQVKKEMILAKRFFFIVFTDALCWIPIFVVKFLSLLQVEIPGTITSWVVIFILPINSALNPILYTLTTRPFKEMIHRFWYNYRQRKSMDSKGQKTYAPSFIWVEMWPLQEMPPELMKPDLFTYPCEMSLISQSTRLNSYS
Description: To optimize collection of recombinant ΔH2 peptide for this assay, single-cell clones of LV-infected 293T cell cultures were isolated. Clones were confirmed by flow cytometry measuring eGFP fluorescence and selected based on highest expression. 293T-eGFP#3, 293TΔH2/eGFP#6, 293T-H2/eGFP#3 cell cultures were seeded in 15-cam plates in complete medium overnight, refreshed with Dulbecco's Modified Eagle Medium (DMEM) medium containing 2% FCS after 24 h, and incubated for an additional 48 h. At this point, CM were collected for assays. H2 relaxin levels in unconcentrated CM from 293T-eGFP#3, 293TΔH2/eGFP#6, 293T-H2/eGFP#3 cell cultures were approximated by the H2 ELISA to be 0, 1, and 4 ng/mL (data not shown).
293T-LGR7 cells were collected, washed with PBS supplemented with 1% FCS (PBS-1%), and resuspended at 1.67×10^7 cells/mL. For each sample, 30 μl (0.5×10^6 […]) were added per 5 mL polystyrene round-bottom Falcon tube (Becton Dickinson Labware, Franklin Lakes, N.J., USA). Control samples contained 50 μL of either PBS-1% containing 5 ng of rH2 or 50 μL of PBS-1% alone. […] Samples were incubated for 15 min at RT. […] Cells were washed twice with 500 μL of PBA-1% and analyzed on a FACSCalibur flow cytometer) BDBiosciences, Franklin Lakes, N. J., USA).

relaxin receptor = settings: Bullesbach 1992; cited from earlier work
[2] = Plasma osmolality of PC3-Luc tumor-bearing mice at week 11; format: in vivo, mouse; settings: week 11, P=0.04
Description: To determine whether H2 and ΔH2 relaxins secreted from the PC3-Luc tumor xenografts elicited a systemic physiological response, plasma osmolality was measured from the animals at the termination of the study (FIG. 4D). Plasma osmolality readings obtained from PC3-H2/eGFP, PC3-Luc-eGFP and PC3-Luc-ΔH2/eGFP animals averaged 330±4.6 […] and 342±4.6 mmol/L, respectively. […] Overexpression of ΔH2 relaxin in the tumor microenvironment may inhibit endogenous H2 relaxin progrowth signals to tumor cells or tumor-infiltrated ECs.
Six-to-eight week old male NOD/SCID mice (The Jackson Laboratory; Bar Harbour, Me.) wore maintained at the Animal Resource Facility (PMH, Toronto, Canada) under an approved UHN protocol. […] Tumors were measured weekly by calipers and tumor volume approximated (l×w×d), as described previously (Silvertown, J. D., Ng, J., Sato, T., Summerlee, A. J., Medin, J. A. 2006. H2 relaxl; overexpression increases in vivo prostate xenograft tumor growth and angiogenesis. Iift J Cancer. 118:62-73). […] For plasma osmolality readings, approximately 100-200 μL of blood was collected in heparin (heparin sodium, 1000 USP units/mL; Hepalean) and sent for analysis (Animal Health Laboratory, Department of Pathobiology, University of Guelph).

B1: ΔH2: H2 relaxin with lysine substitution at B13 and B17 of the receptor binding domain, B20 Ile (protein, UniProt P04090 1-185, looked up, variant R13K R17K)
chain: MPRLFFFHLLGVCLLLNQFSRAVADSWMEEVIKLCGKELVKAQIAICGMSTWSKRSLSQEDAPQTPRPVAEIVPSFINKDTETINMMSEFVANLPQELKLTLSEMQPALPQLQQHVPVLKDSSLLFEEFKKLIRNRQSEAADSSPSELKYLGLDTHSRKKRQLYSALANKCCHVGCTKRSLARFC
modifications: B-chain numbering
- Bioactivity by cAMP assays [1]: significantly impaired
- receptor affinity (LGR7): low
- biological activity (relaxin receptor): biologically inactive
- lower affinity for receptor binding than wild type H2 relaxin (relaxin receptor): ~2200 fold
- plasma osmolality increase compared to wild-type H2-expressing tumor animals [2]: approximately 12 mmol/L
